Data on one molecule can be found in paper PMC10887324, “Electrochemical Aptasensing Platform for the Detection of Retinol Binding Protein-4”.

Data set [1] concerns the target T1, Retinol binding protein-4 (RBP-4) (UniProt P02753 19-201). Put plainly: EIS (electrochemical impedance, Langmuir linearization); same measurement as the Kd row; 2 mM MgCl2; 0.1 M PBS + 2 mM MgCl2, Fe(CN)6 3-/4- redox probe, aptamer on gold electrode with MCH; aptamer folded at 70 C 1 min then ice 10 min; immobilization at room temp.
The target in data set [2] is T1, Retinol binding protein-4 (RBP-4). Put plainly: EIS (electrochemical impedance, Langmuir linearization); folded aptamer, 0.1 uM in immobilization; 2 mM MgCl2; Fe(CN)6 3-/4- probe; 0.1 M PBS + 2 mM MgCl2, Fe(CN)6 3-/4- redox probe, aptamer on gold electrode with MCH; aptamer folded at 70 C 1 min then ice 10 min; immobilization at room temp.

B1: Apt-RBP-4 (ssDNA)
DNA: ACAGTAGTGAGGGGTCCGTCGTGGGGTAGTTGGGTCGTGG
modifications: 5'-thiol (-SH)
Take B1: the Ka in data set [1] was determined as 2e+07 M⁻¹. Further, the Kd (usually the concentration at which binding is half-saturated) in data set [2] was determined as 50 nM.
